The values that follow come from patent US20050036988A1 (published 2005).

The data set deals with the molecule itself. Kind of data set: western immunoblotting of rat liver after chronic CCl4 injury. A general note: Immunoblotting shows a protein as a band on a membrane.

B1: rat stellate cell activation-associated protein (STAP) (enzyme, UniProt Q921A4 1-190, looked up)
chain: MEKVPGDMEIERRERNEELSEAERKAVQATWARLYANCEDVGVAILVRFFVNFPSAKQYFSQFKHMEDPLEMERSPQLRKHACRVMGALNTVVENLHDPDKVSSVLALVGKAHALKHKVEPMYFKILSGVILDVIAEEFANDFPVETQKAWTKLRGLIYSHVTAAYKEVGWVQQVPNTTTLPATLPSSGP
notes: Detected in rat liver tissue lysates and sections, either endogenous or expressed from rAAV/rSTAP; Immunoblots show monomeric and dimeric forms; also called rSTAP; rat STAP
For the protein B1, the binding result is reported as “binds”.
